T1: human CRTH2 (Homo sapiens, UniProt Q9Y5Y4)
T1 construct: expressed in transfected cells
T1 sequence (Q9Y5Y4 1-395): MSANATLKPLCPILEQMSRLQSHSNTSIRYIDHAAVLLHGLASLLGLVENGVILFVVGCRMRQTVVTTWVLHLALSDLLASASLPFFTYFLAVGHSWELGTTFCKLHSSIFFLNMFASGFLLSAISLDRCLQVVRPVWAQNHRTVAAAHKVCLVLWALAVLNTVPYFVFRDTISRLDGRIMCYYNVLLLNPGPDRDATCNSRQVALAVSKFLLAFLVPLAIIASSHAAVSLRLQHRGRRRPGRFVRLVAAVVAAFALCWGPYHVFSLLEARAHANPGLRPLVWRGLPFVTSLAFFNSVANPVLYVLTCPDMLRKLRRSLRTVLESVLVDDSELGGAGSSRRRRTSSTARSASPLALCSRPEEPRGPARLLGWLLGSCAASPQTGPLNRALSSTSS


How the values were obtained:
human CRTH2 = biological target: T1, human CRTH2; assay: Binding activity against Azami-Green fusion human CRTH2-expressing CHO/DG44 cells; settings: 2-30000 ng/mL, compared with monkey CRTH2; FIG. 21
Experimental: The Azami-Green fusion human CRTH2-expressing CHO/DG44 cells and the cynomolgus monkey CRTH2-expressing CHO/DG44 cells established in Example 24 were peeled using 0.02% EDTA solution (NACALAI TESQUE, Inc.), washed with PBS, and suspended with SM. Next, the cells were seeded in a 96-well plate such that each well had 2×10^5 cells, and humanized Lym2 antibody LV0HV1 or the anti-DNP IgG1 antibody at each of final concentrations 30000, 7500, 1875, 469, 117, 29, 7, and 2 ng/mL were added thereto to cause a reaction at 4° C. for 40 minutes.
After the cells were washed three times with SM, goat anti-Human IgG alexa 647 (Molecular Probes) diluted to a concentration of 10 μg/mL with SM was added thereto at 100 μL/well to perform a reaction at 4° C. for 40 minutes. The cells were washed with SM and resuspended with 100 μL of SM, and the fluorescent intensity was measured by flow cytometry (BD Biosciences, FACS CantoII).
The data was analyzed by FLowJo 7.65 (Tomy Digital Biology Co., Ltd.).

human eosinophils [1] = assay: Antagonist activity using shape change of human eosinophils as index (Example 19); type: cell-based; settings: antibody 10 μg/mL or small molecule 10 μM, DKPGD2 0.1-1000 nM; FIG. 16
Experimental: Eosinophils were separated from human peripheral blood in the same manner as in Example 11. The isolated human eosinophils were suspended with Dulbecco's phosphate buffered saline (hereinafter, referred to as D-PBS (−)) (NACALAI TESQUE, Inc.) and performed a reaction in a 5% CO2 incubator at 37° C. for 1 hour and 30 minutes. Thereafter, the cells were seeded in a 96-well plate at 2×10^5 cells/well using 10% FBS-containing RPMI1640. Next, an isotype control antibody [CELL LAB Rat IgG2b Isotype Control (Beckman Coulter Inc.)] at a final concentration of 10 μg/mL or Lym2 antibody; or small molecular CRTH2 antagonist 00000459 (Cayman Chemical) at a final concentration of 10 μM as a positive control, was added thereto to cause a reaction in a 5% CO2 incubator at 37° C. for 30 minutes.
Next, DKPGD2 (Cayman Chemical) at each of final concentrations of 0.1, 1, 10, 100, and 1000 nM was added thereto to cause a reaction in a 5% CO2 incubator at 37° C. for 60 minutes. After the reaction, the cells were washed twice with ice-cold PBS, Fixation Buffer (BD Biosciences) was added at 200 μL/well, and the resultant was suspended well and allowed to stand at 4° C. for 30 minutes. After that, the cells were washed twice with SM, and shape change of eosinophils was analyzed by flow cytometry (BD Biosciences, FACS CantoII).
The shape change of eosinophils was analyzed based on an increase in Forward Scatter Light (FSC) plot which is an index of the cell size, the cell surface area, or the cell diameter in the analysis using flow cytometry and the percentage (%) of eosinophils detected in the gate of high FSC was calculated based on the FSC of DKPGD2-untreated eosinophils.

human eosinophils [2] = assay: Reactivity against human eosinophils, flow cytometry; type: binding; settings: 0.12-10 μg/mL, 4° C., 1 hour; FIG. 8
Experimental: To human peripheral blood collected by adding a heparin sodium injection liquid, the same amount of physiological saline for injection as the human peripheral blood was added thereto and mixed with each other. 15 mL of Ficoll-Paque PREMIUM 1.084 (GE Healthcare) was added to a 50 mL centrifuge tube, 30 mL of the above described human peripheral blood diluted with physiological saline was overlaid thereon, and centrifugation was performed at room temperature and 1500 rpm for 30 minutes. […]
After the number of cells was counted, eosinophils were isolated by a negative selection method using CD16 MicroBeads, human (Miltenyi Biotec) according to the attached instructions. […]
After the cells were washed, CELL LAB Mouse Anti-Rat Kappa (kappa light chain specific) FITC (Beckman Coulter Inc.) diluted with SM was added to wells to which Lym2 antibody or BM16 was added and CELL LAB Goat Anti-Mouse IgG (γ chain specific) Fluorescein (FITC) Conjugate (Beckman Coulter Inc.) diluted with SM was added to wells to which 301108 was added at a final concentration of 10 μg/mL respectively to cause a reaction at 4° C. for 1 hour. The cells were washed again and suspended with SM, and the fluorescent intensity was analyzed by flow cytometry (BD Biosciences, FACS CantoII).

Row | Molecule | binding activity against human CRTH2 (human CRTH2) | inhibition of DKPGD2-dependent shape change of eosinophils (antagonist activity) (human eosinophils [1]) | reactivity against human eosinophils (human eosinophils [2])
1 | LV0HV1: humanized Lym2 antibody, VL LV0 (SEQ ID NO: 33), VH HV1 (SEQ ID NO: 51) (antibody, V domains shown) VH: EVQLVESGGGVVQPGRSLRLSCAASGFTFSNYYMAWVRQAPGKGLEWVATISYDGSSTYYRDSVKGRFTISRDNAKNSLYLQMNSLRAEDTATYYCARHRGYYYSGAGYFDYWGQGTMVTVSS VL: DIVMTQTPLSLPVTPGESASISCRSSQSLEYSDGYTYLEWYLQKPGQSPQVLIYGVSNRFSGVPDRFSGSGSGTDFTLKISRVEAEDVGVYYCFQATHDPLTFGQGTKLEIK | substantially the same as each other |  | 
2 | Lym2 antibody: rat anti-human CRTH2 monoclonal antibody from hybridoma Lym2, rat IgG2b; VH SEQ ID NO: 17, VL SEQ ID NO: 19 (antibody, listed as Rattus norvegicus, V domains shown) VH: EVQLVESGGGLVQPGRSMKLSCAASGFTFSNYYMAWVRQAPKKGLEWVATISYDGSSTYYRDSVKGRFTISRDNAKSTLYLQMDSLRSEDTATYYCARHRGYYYSGAGYFDYWGQGVMVTVSS VL: DVVLTQTPVSLSVTLGDQASISCRSSQSLEYSDGYTYLEWYLQKPGQSPQVLIYGVSNRFSGVPDRFIGSGSGTDFTLKISRVEPEDLGVYYCFQATHDPLTFGSGTKLEIK |  | didn't inhibit | stronger reactivity

— patent US10100120B2, “Antibody which specifically binds to human CRTH2” (KYOWA HAKKO KIRIN CO., LTD, priority 2015, dated 2018)
